Assay [1] has as its target T1, human LRP6 construct E3E4 (amino acids E631-Q1253) (human, UniProt O75581 631-1253, biotinylated for biolayer interferometry).
T1 construct: range 631-1253; also called LRP6 E3E4
T1 sequence (looked up): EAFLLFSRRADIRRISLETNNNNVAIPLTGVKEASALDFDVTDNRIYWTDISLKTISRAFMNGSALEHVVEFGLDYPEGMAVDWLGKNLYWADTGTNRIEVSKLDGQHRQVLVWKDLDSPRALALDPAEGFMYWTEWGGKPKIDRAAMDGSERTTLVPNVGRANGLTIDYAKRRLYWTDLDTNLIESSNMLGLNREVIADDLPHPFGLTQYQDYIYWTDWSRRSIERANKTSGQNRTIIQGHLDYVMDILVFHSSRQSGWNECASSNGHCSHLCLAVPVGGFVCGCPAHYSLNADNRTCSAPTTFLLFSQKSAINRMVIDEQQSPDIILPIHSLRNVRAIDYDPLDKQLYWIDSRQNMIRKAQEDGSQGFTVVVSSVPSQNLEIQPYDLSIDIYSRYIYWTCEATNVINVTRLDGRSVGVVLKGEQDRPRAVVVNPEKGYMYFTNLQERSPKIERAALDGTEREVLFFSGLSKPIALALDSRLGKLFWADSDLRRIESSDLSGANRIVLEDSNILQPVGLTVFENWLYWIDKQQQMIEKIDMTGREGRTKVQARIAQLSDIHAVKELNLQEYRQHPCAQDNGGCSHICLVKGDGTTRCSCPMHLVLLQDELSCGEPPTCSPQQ
Kind of assay: BLI (Octet Red), biotinylated LRP6 on streptavidin tips, steady state. The protocol: (§1) Binding kinetics were measured by biolayer interferometry using an Octet Red instrument (ForteBio) as previously described (11). Streptavidin (SA) biosensors were loaded with biotinylated hLRP6 in 50 mMTris, pH 8, 300 mM NaCl, 5% (v/v) glycerol, and 0.05% (w/v) Triton X-100. The loaded biosensors were washed in the same buffer before carrying out association and dissociation measurements for the indicated times. The Kd of each interaction was determined using steady state-analysis through the Octet Red software v6.3. Each reported value represents an average of three or more experiments at different concentrations, with a fitted experimental curve for which the square of the correlation coefficient (R²) is above 0.96.
In general terms: BLI is a label-free optical method that tracks binding on a fibre tip over time.

Assay [2] concerns the target T2, human LRP6 construct E1E2 (amino acids A20-E631) (human, UniProt O75581 20-631, biotinylated for biolayer interferometry).
T2 construct: range 20-631; also called LRP6 E1E2
T2 sequence (looked up): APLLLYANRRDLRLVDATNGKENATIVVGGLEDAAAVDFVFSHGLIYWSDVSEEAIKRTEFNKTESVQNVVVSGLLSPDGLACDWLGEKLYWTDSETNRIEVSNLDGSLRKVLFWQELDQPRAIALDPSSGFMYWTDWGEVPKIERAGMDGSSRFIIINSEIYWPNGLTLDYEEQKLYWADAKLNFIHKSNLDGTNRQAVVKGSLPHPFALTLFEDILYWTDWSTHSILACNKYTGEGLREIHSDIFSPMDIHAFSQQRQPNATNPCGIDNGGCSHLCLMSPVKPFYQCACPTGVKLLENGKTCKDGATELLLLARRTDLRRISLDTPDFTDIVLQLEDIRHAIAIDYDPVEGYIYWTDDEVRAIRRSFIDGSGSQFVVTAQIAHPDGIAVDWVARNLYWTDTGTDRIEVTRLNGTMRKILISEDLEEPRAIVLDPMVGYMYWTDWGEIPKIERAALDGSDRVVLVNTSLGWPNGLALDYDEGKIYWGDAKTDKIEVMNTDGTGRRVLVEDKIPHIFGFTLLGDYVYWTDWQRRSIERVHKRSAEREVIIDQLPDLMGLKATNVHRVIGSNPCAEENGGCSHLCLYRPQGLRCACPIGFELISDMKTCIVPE
The assay is described as above. The protocol:
as §1

In assay [3] the target is T2, human LRP6 construct E1E2 (amino acids …). Nature of the assay: BLI (FIG. 9B). The protocol:
as §1

The target of assay [4] is T3, human LRP6 construct E1E4 (amino acids A20-Q1253) (human, UniProt O75581 20-1253, biotinylated for biolayer interferometry).
T3 construct: range 20-1253; Expressed in Tni insect cells; tags not specified for this construct; also called LRP6 E1E4
T3 sequence (looked up): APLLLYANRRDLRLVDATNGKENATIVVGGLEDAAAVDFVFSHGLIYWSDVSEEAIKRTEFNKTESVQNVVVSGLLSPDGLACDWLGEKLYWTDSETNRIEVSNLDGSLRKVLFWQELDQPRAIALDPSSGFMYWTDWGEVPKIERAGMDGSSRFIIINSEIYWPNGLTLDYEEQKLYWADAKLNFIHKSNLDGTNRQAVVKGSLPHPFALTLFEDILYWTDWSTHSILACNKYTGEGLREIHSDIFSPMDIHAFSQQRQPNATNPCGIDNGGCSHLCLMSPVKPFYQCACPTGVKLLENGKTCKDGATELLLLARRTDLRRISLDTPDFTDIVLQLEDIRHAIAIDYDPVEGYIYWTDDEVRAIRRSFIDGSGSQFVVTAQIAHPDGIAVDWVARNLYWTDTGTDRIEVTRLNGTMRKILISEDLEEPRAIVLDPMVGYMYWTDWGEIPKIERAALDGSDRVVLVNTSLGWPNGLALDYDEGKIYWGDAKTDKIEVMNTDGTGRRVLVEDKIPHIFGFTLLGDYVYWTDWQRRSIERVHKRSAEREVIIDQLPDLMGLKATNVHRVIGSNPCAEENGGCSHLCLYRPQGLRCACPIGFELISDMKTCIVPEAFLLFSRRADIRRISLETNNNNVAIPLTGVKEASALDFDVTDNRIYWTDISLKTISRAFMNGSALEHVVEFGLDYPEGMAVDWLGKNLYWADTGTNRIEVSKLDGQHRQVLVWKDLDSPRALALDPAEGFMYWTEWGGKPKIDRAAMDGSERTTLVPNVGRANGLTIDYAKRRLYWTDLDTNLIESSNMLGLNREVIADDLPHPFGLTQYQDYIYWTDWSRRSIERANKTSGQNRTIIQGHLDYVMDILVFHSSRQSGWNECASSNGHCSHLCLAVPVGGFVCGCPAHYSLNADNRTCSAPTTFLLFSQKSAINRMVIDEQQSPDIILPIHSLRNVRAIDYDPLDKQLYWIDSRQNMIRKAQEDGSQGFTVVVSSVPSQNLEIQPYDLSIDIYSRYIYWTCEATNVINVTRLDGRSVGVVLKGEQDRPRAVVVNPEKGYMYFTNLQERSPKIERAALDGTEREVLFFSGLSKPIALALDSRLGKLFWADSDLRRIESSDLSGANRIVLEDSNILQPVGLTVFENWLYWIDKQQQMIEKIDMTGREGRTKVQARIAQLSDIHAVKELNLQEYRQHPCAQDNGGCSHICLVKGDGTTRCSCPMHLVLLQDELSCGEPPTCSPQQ
Kind of assay: BLI (FIG. 9B). The protocol:
as §1

The next assay concerns the target T4, LRP6 E3E4 (Homo sapiens, UniProt O75581).
T4 construct: construct E3E4 amino acids E631-Q1253 of LPR6; made in house; host or cells: Tni insect cells (baculovirus, secreted)
T4 sequence (O75581 631-1253): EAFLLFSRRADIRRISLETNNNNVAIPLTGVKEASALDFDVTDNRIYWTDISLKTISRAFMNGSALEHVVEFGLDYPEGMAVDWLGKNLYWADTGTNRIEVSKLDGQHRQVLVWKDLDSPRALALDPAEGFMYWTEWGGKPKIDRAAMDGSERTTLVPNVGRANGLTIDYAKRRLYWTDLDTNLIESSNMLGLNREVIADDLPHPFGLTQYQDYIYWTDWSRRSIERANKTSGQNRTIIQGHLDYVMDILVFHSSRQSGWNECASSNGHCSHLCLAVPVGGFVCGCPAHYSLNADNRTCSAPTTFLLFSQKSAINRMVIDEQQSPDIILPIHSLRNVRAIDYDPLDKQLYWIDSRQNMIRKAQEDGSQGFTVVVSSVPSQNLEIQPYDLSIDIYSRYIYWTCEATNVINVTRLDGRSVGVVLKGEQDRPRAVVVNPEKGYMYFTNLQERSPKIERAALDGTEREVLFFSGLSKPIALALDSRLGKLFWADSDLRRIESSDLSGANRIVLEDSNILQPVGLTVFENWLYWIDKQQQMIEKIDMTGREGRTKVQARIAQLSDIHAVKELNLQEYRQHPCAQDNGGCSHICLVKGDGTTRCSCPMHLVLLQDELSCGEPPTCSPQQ
Nature of the assay: Biolayer interferometry binding to LRP6 E3E4. The procedure:
as §1, with “(R^2)” for “(R²)”
(§2) The interaction of the different Dkks and sclerostin with various domains of LRP6 was measured using a biolayer interferometry assay (11). Purified receptors contained individual β-propeller-EGF-like units (E1, E2, or E4), two β-propellers (E1E2 or E3E4), or four β-propellers (E1E4))—as follows:
(§3) Human LRP6: construct E1E4-amino acids A20-Q1253 of LPR6; construct E1E2-amino acids A20-E631 of LPR6; construct E3E4 amino acids E631-Q1253 of LPR6; construct E1-amino acids A20-D325 of LPR6; construct E2-amino acids […]-E631 of LPR6; construct E4-T933-Q1253. The individual LRP6 β-propeller E3 could not be expressed.

The next assay concerns the target T5, LRP6 E1E4 (Homo sapiens, UniProt O75581).
T5 construct: construct E1E4-amino acids A20-Q1253 of LPR6; made in house; host or cells: Tni insect cells (baculovirus, secreted)
T5 sequence (O75581 20-1253): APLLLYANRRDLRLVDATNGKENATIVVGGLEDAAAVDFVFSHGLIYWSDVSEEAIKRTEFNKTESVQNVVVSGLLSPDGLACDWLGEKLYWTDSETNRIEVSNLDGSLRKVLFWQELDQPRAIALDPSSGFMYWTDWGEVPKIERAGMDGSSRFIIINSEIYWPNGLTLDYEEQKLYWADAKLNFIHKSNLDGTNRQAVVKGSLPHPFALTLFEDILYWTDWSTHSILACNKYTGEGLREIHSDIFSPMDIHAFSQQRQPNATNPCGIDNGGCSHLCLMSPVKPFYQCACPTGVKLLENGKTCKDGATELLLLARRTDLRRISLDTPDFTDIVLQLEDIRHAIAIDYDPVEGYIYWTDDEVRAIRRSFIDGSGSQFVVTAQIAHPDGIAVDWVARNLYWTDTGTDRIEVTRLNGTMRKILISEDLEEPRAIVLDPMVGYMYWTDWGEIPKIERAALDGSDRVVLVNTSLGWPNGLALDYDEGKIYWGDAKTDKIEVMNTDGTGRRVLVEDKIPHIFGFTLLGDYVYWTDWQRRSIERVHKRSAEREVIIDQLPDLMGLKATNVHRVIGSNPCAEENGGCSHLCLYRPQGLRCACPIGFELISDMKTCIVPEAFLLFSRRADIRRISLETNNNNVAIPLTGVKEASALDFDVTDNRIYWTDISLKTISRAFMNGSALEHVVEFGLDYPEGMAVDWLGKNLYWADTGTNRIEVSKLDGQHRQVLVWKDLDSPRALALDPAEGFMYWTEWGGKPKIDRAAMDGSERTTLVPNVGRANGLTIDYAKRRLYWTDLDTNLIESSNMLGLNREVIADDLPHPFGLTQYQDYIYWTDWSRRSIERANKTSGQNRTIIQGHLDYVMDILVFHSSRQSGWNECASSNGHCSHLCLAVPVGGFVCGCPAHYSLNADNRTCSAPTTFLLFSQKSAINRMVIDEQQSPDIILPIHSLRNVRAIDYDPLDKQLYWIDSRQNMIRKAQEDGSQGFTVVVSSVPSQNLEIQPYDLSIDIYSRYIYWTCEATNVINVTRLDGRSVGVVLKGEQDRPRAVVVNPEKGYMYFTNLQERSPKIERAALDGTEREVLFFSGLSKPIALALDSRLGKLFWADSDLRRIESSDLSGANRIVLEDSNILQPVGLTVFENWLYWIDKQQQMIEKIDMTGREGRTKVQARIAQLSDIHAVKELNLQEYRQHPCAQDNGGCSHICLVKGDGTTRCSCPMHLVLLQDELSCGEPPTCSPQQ
Nature of the assay: Biolayer interferometry binding to LRP6 E1E4. The procedure: as §1, with “(R^2)” for “(R²)”
as §2, §3

“Also recorded” adds a separate entry of the source.

B1: Dkk2 (ligand)
chain: KLNSIKSSLGGETPAQSANRSAGMNQGLAFGGSKKGKSLGQAYPCSSDKECEVGRYCHSPHQGSSACMLCRRKKKRCHRDGMCCPGTRCNNGICIPVTESILTPHIPALDGTRHRDRNHGHYSNHDLGWQNLGRPHSKMPHIKGHEGDPCLRSSDCIDGFCCARHFWTKICKPVLHQGEVCTKQRKKGSHGLEIFQRCDCAKGLSCKVWKDATYSSKARLHVCQKI
With B1, the Kd (commonly the concentration at which binding is half-saturated) was 38 nM in assay [1] and 53 nM in assay [2].

B2: Dkk1 H204E (ligand, human, UniProt O94907 32-266, looked up)
chain: TLNSVLNSNAIKNLPPPLGGAAGHPGSAVSAAPGILYPGGNKYQTIDNYQPYPCAEDEECGTDEYCASPTRGGDAGVQICLACRKRRKRCMRHAMCCPGNYCKNGICVSSDQNHFRGEIEETITESFGNDHSTLDGYSRRTTLSSKMYHTKGQEGSVCLRSSDCASGLCCAREFWSKICKPVLKEGQVCTKHRRKGSHGLEIFQRCYCGEGLSCRIQKDHHQASNSSRLHTCQRH
In the case of B2, the binding result in assay [3] and in assay [4] was “binds” throughout. Further, in the assay with LRP6 E3E4, the “binding to LRP6 E3E4 (in words)” value is given as “interfered with binding; also recorded: affect binding”. Besides, the “binding to LRP6 E1E4 (in words)” value with LRP6 E1E4 is listed as “retain binding”.

Values taken from US20140235820A1, “METHODS AND COMPOSITIONS FOR MODULATING THE Wnt PATHWAY” (Genentech, Inc., priority 2010, published 2014).
